Results: patent US20170306037A1 (Novartis, published 2017)
Blank lines part the entries; values can stand above or below the binder they belong to.

Tests used:
[1] = biological target: T1, Recombinant human GITR and human Fc fusion protein (hGITR-hFc) (human, UniProt Q9Y5U5 26-162, limits assumed, biotinylated in the ForteBio Octet assays (sites not given)); assay: ForteBio Octet QK, streptavidin biosensors coated with biotinylated hGITR-hFc
T1 construct: also called biotinylated hGITR-hFc; not shown: human Fc
T1 sequence: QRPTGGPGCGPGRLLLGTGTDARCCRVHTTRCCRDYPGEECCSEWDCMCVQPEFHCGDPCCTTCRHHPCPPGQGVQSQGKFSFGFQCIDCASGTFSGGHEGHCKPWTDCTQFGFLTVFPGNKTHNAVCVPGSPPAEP
From the text: Human germline residues incorporated into the optimized reference MAB1opFab in FR1 and FR3 are those specified by the PCR primers used to amplify the human V-segment repertoire and thus are present in all members of the Humaneered® Antibody V-region libraries. The optimized reference Fab is constructed to assess whether or not any of the changes to human germline alter the properties of Fab binding.

[2] = biological target: T2, mouse GITR extracellular domain (mouse, UniProt O35714 20-153); assay: ELISA on coated GITR ECD
T2 construct: extracellular domain; also called murine GITR; rodent GITR
T2 sequence (looked up): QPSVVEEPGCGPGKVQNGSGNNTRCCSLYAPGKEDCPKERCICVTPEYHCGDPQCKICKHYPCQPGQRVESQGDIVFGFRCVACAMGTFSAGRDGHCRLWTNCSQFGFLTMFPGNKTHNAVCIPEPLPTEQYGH
Procedure: (§1) The plate was blocked with a solution of 1% BSA in PBS for one hour at room temperature and then rinsed three times with PBST. The MAB was then diluted to 0.5 μg/mL or 1 μg/mL in PBS and 20 μL was added to each well. The plate was incubated for 1 hour at room temperature and then washed three times with PBST. […] The plate was incubated for 1 hour at room temperature, and then washed six times with PBST. 25 μL of SureBlue TMB (KPL 52-00-02) substrate was added to each well and the plate was incubated for about 10 min at room temperature.

[3] = biological target: T3, human GITR extracellular domain (hGITR ECD) (human, UniProt Q9Y5U5 26-162); assay: ELISA on coated GITR ECD
T3 construct: also called human GITR ECD
T3 sequence: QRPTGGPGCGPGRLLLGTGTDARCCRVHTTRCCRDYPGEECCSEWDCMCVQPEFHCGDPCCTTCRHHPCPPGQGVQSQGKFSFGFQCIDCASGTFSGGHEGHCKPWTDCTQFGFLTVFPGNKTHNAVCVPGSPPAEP
Procedure: as §1

[4] = biological target: T1, Recombinant human GITR and human Fc …; assay: ForteBio Octet, Fab on human GITR (biotinylated hGITR-hFc sensors per paragraph 356); experiment b
[5] = biological target: T4, human GITR (hGITR), form not stated (human, UniProt Q9Y5U5 26-162, limits assumed); assay: Biacore (SPR), IgG
T4 construct: the construct is not described
T4 sequence: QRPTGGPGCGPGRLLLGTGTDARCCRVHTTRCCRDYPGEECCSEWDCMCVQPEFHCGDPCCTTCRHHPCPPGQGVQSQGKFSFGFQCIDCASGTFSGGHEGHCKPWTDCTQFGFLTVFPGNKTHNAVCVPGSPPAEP

[6] = biological target: cyno GITR (cGITR), form not stated (cynomolgus monkey); assay: Biacore (SPR), IgG
[7] = biological target: T1, Recombinant human GITR and human Fc …; assay: ForteBio Octet, Fab on human GITR (biotinylated hGITR-hFc sensors per paragraph 356); experiment a
[8] = biological target: T1, Recombinant human GITR and human Fc …; assay: ForteBio Octet, Fab on human GITR (biotinylated hGITR-hFc sensors per paragraph 356); experiment c
[9] = biological target: T5, human GITR expressed on cells (human, UniProt Q9Y5U5 27-241); assay: cell-based or functional assay
T5 sequence: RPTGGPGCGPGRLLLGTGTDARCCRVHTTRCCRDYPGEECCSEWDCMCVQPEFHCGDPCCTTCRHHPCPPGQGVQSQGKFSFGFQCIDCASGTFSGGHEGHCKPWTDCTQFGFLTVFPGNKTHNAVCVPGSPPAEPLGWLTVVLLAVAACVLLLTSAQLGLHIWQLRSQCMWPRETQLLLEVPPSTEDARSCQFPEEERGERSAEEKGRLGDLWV

[10] = biological target: T5, human GITR expressed on cells; assay: FACS competition on hGITR stable HEK293 cells: ligand titrated first, then 4 nM MAB7 as competitor, PE anti-human detection
Procedure: The ability of MAB to block ligand binding was assessed using HEK293 NFκB reporter parental cells and hGITR stable cells were used in competition binding assays and FACS analysis. Briefly, harvested cells were plated 1×10⁶ cells per mL, 100 μL per well to a 96 well round bottom FACS plate (Corning), then resuspended in 200 μL of cold FACS buffer (1×PBS+1% FBS-HI+0.1% sodium azide) per well. […] Plates were incubated for 1 hour on ice protected from light, cells washed, then prepared 4 nM isotype control or MAB solutions were prepared and added to appropriate wells at 100 μL per well and plates were incubated for 1 hour on ice protected from light, cells washed, then PE-conjugated goat-anti-human detection antibody (Jackson ImmunoResearch) prepared at 1:100 dilution in FACS buffer was added at 100 μL per well and plates were incubated for 30 minutes on ice protected from light. Cells were washed in FACS buffer then cells were fixed with 100 μL per well of BD CytoFix (BD Biosciences) and incubated for further 15 minutes on ice protected from light.

binding result [1]: binds
B1: MAB1rFab (reference Fab of MAB1) (Fab, V domains shown)
VH: QVQLKESGPGLVAPSQSLSITCTVSGFSLRSYGVDWVRQPPGKGLEWLGVIWGGGGTNYNSALMAKLSISKDKSKSQVFLKMNSLQTDDTAMYYCAKHAYGHDGGFAMDYWGQGTSVTVSS
VL: EIVMTQSPKSMSMSVGERVTLSCKASENVDTFVSWYQQKPDHSPKLLIYGASNRYTGVPDRFTGSGSATDFTLTISSVQAEDLADYHCGQSYSYPFTFGSGTKLEIK

binding result [2]: no binding | binding result [3]: binds
B2: MAB1 (murine monoclonal GITR agonist antibody) (antibody, V domains shown)
VH: QVQLKESGPGLVAPSQSLSITCTVSGFSLRSYGVDWVRQPPGKGLEWLGVIWGGGGTNYNSALMAKLSISKDKSKSQVFLKMNSLQTDDTAMYYCAKHAYGHDGGFAMDYWGQGTSVTVSS
VL: NIVMTQSPKSMSMSVGERVTLSCKASENVDTFVSWYQQKPDHSPKLLIYGASNRYTGVPDRFTGSGSATDFTLTISSVQAEDLADYHCGQSYSYPFTFGSGTKLEIK
notes: Mouse hybridoma antibody; also called parental mouse antibody MAB1; MAB1 parental Ab

B3: MAB6 (IgG1 kappa) (antibody, V domains shown)
VH: EVQLVESGGGLVQSGGSLRLSCAASGFSLSSYGVDWVRQAPGKGLEWLGVIWGGGGTYYTSSLMARFTISRDNSKNTLYLQMNSLRAEDTAVYYCAKHAYGHDGGFAMDYWGQGTLVTVSS
VL: EIVMTQSPATLSVSPGERATLSCRASESVSSNVAWYQQRPGQAPRLLIYGASNRATGIPARFSGSGSGTDFTLTISRLEPEDFAVYYCGQSYSYPFTFGQGTKLEIKR
binding result [2]: no binding (tested: 0.5 µg/mL or 1 µg/mL)

Kd [4]: 3.74 nM
B4: MAB5 Fab (human full-chain Fab) (Fab, V domains shown)
VH: EVQLVESGGGLVQSGGSLRLSCAASGFSLSSYGVDWVRQAPGKGLEWLGVIWGGGGTYYTSSLMGRFTISRDNSKNTLYLQMNSLRAEDTAVYYCAKHAYGHDGGFAMDYWGQGTLVTVSS
VL: EIVMTQSPATLSVSPGERATLSCRASESVSSNVAWYQQRPGQAPRLLIYGASNRATGIPARFSGSGSGTDFTLTISRLEPEDFAVYYCGQSYSYPFTFGQGTKLEIK
notes: human kappa constant; also called MAB5(b)

binding result [3]: binds
B5: MAB8 (IgG1 kappa) (antibody, V domains shown)
VH: EVQLVESGGGLVQSGGSLRLSCAASGFSLSSYGVDWVRQAPGKGLEWVGVIWGGGGTYYASSLMGRFTISRDNSKNTLYLQMNSLRAEDTAVYYCARNAYGHDGGFAMDYWGQGTLVTVSS
VL: EIVMTQSPATLSVSPGERATLSCRASESVSSNVAWYQQRPGQAPRLLIYGASNRATGIPARFSGSGSGTDFTLTISRLEPEDFAVYYCGQSYSYPFTFGQGTKLEIKR
notes: MAB4 with the glycation site KH changed to RN
binding result [2]: no binding (tested: 0.5 µg/mL or 1 µg/mL)

Kd [4]: 2.43 nM
B6: MAB4 Fab (human full-chain Fab) (Fab, V domains shown)
VH: EVQLVESGGGLVQSGGSLRLSCAASGFSLSSYGVDWVRQAPGKGLEWVGVIWGGGGTYYASSLMGRFTISRDNSKNTLYLQMNSLRAEDTAVYYCAKHAYGHDGGFAMDYWGQGTLVTVSS
VL: EIVMTQSPATLSVSPGERATLSCRASESVSSNVAWYQQRPGQAPRLLIYGASNRATGIPARFSGSGSGTDFTLTISRLEPEDFAVYYCGQSYSYPFTFGQGTKLEIK
notes: human kappa constant; also called MAB4(b)

Kd [5]: 4.29 nM | Kd [6]: 3.67 nM
B7: MAB7 (IgG1 kappa) (antibody, V domains shown)
VH: EVQLVESGGGLVQSGGSLRLSCAASGFSLSSYGVDWVRQAPGKGLEWVGVIWGGGGTYYASSLMGRFTISRDNSKNTLYLQMNSLRAEDTAVYYCARHAYGHDGGFAMDYWGQGTLVTVSS
VL: EIVMTQSPATLSVSPGERATLSCRASESVSSNVAWYQQRPGQAPRLLIYGASNRATGIPARFSGSGSGTDFTLTISRLEPEDFAVYYCGQSYSYPFTFGQGTKLEIKR
notes: MAB4 with the glycation site KH changed to RH
binding result [2]: no binding (tested: not on the sheet; paragraph 336: 0.5 or 1 µg/mL)

Kd [7]: 6.84 nM
B8: MAB2 Fab (human full-chain Fab) (Fab, V domains shown)
VH: QVQLVESGGGLVQPGGSLRLSCAASGFSLSSYGVDWVRQAPGKGLEWVGVIWGGGGTYYASSVMARFTISRDNSKNTLYLQMNSLRAEDTAVYYCAKHAYGHDGGFAMDYWGQGTLVTVSS
VL: EIVMTQSPATLSVSPGERATLSCRASESVSSNVAWYQQRPGQAPRLLIYGASNRATGIPARFSGSGSGTDFTLTISRLEPEDFAVYYCGQSYSYPFTFGQGTKLEIK
notes: human kappa constant; purified on Ni-NTA; also called MAB2(a)

Kd [8]: 5.94 nM
B9: MAB6 Fab (human full-chain Fab) (Fab, V domains shown)
VH: EVQLVESGGGLVQSGGSLRLSCAASGFSLSSYGVDWVRQAPGKGLEWLGVIWGGGGTYYTSSLMARFTISRDNSKNTLYLQMNSLRAEDTAVYYCAKHAYGHDGGFAMDYWGQGTLVTVSS
VL: EIVMTQSPATLSVSPGERATLSCRASESVSSNVAWYQQRPGQAPRLLIYGASNRATGIPARFSGSGSGTDFTLTISRLEPEDFAVYYCGQSYSYPFTFGQGTKLEIK
notes: human kappa constant; also called MAB6(c)

Kd [7]: 2.98 nM
B10: MAB3 Fab (human full-chain Fab) (Fab, V domains shown)
VH: QVQLVESGGGLVQPGGSLRLSCAASGFSLSSYGVDWVRQAPGKGLEWLGVIWGGGGTYYTASLMGRFTISRDNSKNTLYLQMNSLRAEDTAVYYCAKHAYGHDGGFAMDYWGQGTLVTVSS
VL: EIVMTQSPATLSVSPGERATLSCRASQSVSSNLAWYQQKPGQAPRLLIYGASNRATGIPDRFSGSGSGTDFTLTISRLEPEDFAVYYCGQSYSYPFTFGQGTKLEIK
notes: human kappa constant; also called MAB3(a)

EC50, NFκB-luciferase reporter in 293 cells overexpressing human GITR [9]: ~65 nM | IC50 (read off the curve) [10]: ~0.2 molar ratio of Human GITR Ligand to MAB7 (MAB7 at 4 nM)
B11: recombinant human GITR ligand (GITR-L) (ligand, UniProt Q9UNG2 52-177, looked up)
chain: ETAKEPCMAKFGPLPSKWQMASSEPPCVNKVSDWKLEILQNGLYLIYGQVAPNANYNDVAPFEVRLYKNKDMIQTLTNKSKIQNVGGTYELHVGDTIDLIFNSEHQVLKNNTYWGIILLANPQFIS
